# In article PMC12074421, “Development and Characterization of pFluor50, a Fluorogenic-Based Kinetic Assay System for High-Throughput Inhibition Screening and Characterization of Time-Dependent Inhibition and Inhibition Type for Six Human CYPs” (Molecules, 2025):
# Several values for one entry are separate records, joined by “and”; a condition that tells them apart may be missing. Equal entries are not always repeated.
# Columns and labels:
# CYP2C19 = molecular target: T1, CYP2C19 (Homo sapiens, UniProt P33261); experiment: pFluor50 Michaelis–Menten kinetics, CYP2C19 with 3OMF; format: in vitro ADME
# T1 construct: purchased Sigma Aldrich (CYPexpress, Oxford Biomedical Research, Inc.) MTOXCE2C19
# Experimental: (§1) In general, the protocol for determination of the Michaelis–Menten kinetic parameters (KM and Vmax) involved addition of the appropriate master mix to phosphate buffer followed by addition of the appropriate amount of enzyme to the mix. The master mix was determined for each specific CPY450 based on empirical methods involving each reagent to obtain a linear range of enzyme activity. A total of 30 µL of this enzyme mix was then added to each well of the 384-well plate. Next, initial background readings were taken for 5 min, after which the appropriate amount of substrate was dispensed into each well using the onboard reagent dispenser of the plate reader. All plates contained one blank well without enzyme (only master mix) for each substrate concentration. […] Table 1 provides the formulation of the master mix for each CYP, the kinetic read time with substrate, the read time interval, the concentration range of the substrate used for the Michaelis–Menten kinetics, the Ex and Em wavelengths, and the concentration of substrate for inhibition/activation screening. Table S1 details the specific parameters used for the plate reader for each CYP–substrate pair.
# (§2) For determining the Michaelis–Menten kinetic parameters (KM and Vmax) for each CYP–substrate pair, kinetic studies were performed in which a range of different concentrations of the substrate were used. Table 1 details the formulations for the master mix, CYPexpress^TM concentrations, and concentration ranges of each specific substrate. For each CYP–substrate pair, plate reader parameters were set up as described in Table S1. […] Briefly, the working solution was prepared for each substrate and then primed into one of the dispensers on the plate reader. […] The amount of CYPexpress reagent in units/(mg/mL) was determined for each enzyme as new lots may have slightly different activities, and the activity of the reagent may change over time. The appropriate mass of each CYPexpress^TM reagent needed to obtain the required units was measured using an analytical balance and was transferred to the master mix solution. […]
# CYP2D6 = CYP2D6 (Homo sapiens, UniProt P10635); experiment: pFluor50 Michaelis–Menten kinetics, CYP2D6 with Eres; format: in vitro ADME; design: purchased Sigma Aldrich (CYPexpress, Oxford Biomedical Research, Inc.) MTOXCE2D6
# Experimental: as §1, with “reader.” for “reader. All plates contained one blank well without enzyme (only master mix) for each substrate concentration.”
# For determining the Michaelis–Menten kinetic parameters (KM and Vmax) for each CYP–substrate pair, kinetic studies were performed in which a range of different concentrations of the substrate were used. […] For each CYP–substrate pair, plate reader parameters were set up as described in Table S1. […]
# CYP2C9 = CYP2C9 (Homo sapiens, UniProt P11712); experiment: pFluor50 Michaelis–Menten kinetics, CYP2C9 with Eres; format: in vitro ADME; design: purchased Sigma Aldrich (CYPexpress, Oxford Biomedical Research, Inc.) MTOXCE2C9
# Experimental: as §1, §2
# [1] = substrate: CCOc1ccc2nc3ccc(=O)cc-3oc2c1; experiment: pFluor50 Michaelis–Menten kinetics, CYP1A2 with Eres; format: in vitro ADME, human; details: pH 7.4
# Experimental: as §1
# (§3) For determining the Michaelis–Menten kinetic parameters (KM and Vmax) for each CYP–substrate pair, kinetic studies were performed in which a range of different concentrations of the substrate were used. Table 1 details the formulations for the master mix, CYPexpress^TM concentrations, and concentration ranges of each specific substrate. For each CYP–substrate pair, plate reader parameters were set up as described in Table S1. The protocol used for Michaelis–Menten kinetics was similar for all the CYPs. Briefly, the working solution was prepared for each substrate and then primed into one of the dispensers on the plate reader. The other dispenser was primed with the buffer solution. 1.5 mL of phosphate buffer solution (pH 7.4) was used to prepare the master mix with the appropriate concentration of each reagent as specified in Table 1 (NADPH, NADP+, G6P, G6PDH, and/or MgCl2). The amount of CYPexpress reagent in units/(mg/mL) was determined for each enzyme as new lots may have slightly different activities, and the activity of the reagent may change over time. The appropriate mass of each CYPexpress^TM reagent needed to obtain the required units was measured using an analytical balance and was transferred to the master mix solution. This solution was mixed, and 30 µL of the solution was added to each well using a multichannel pipette. In each case, a blank control well was also included, as described in Figure S1. The plate was then transferred to the plate reader and readings were taken at the time intervals, for the appropriate length of time, and at the appropriate wavelengths as specified in Table 1.
# (§4) Calibration curves were constructed using the determined plate reader settings (Figure S3) and concentrations of the products formed to allow for the calculation of product formation rates based on the observed fluorescence. For these calculations, we presumed that the total increase in observed fluorescence over time was due only to product formation. Calibration curves were generated with 6 different concentrations of the products (fluorescein and resorufin), which spanned the relative fluorescence units (RFU) observed during the kinetic experiments. This allowed for the calculation of product concentrations from the observed RFU, enabling the calculation of the product formation rates. Unfortunately, fluorescein benzyl ester (the product formed from the metabolism of dibenzyl fluorescein) is not commercially available. Therefore, the exact rate of formation could not be determined, and the Vmax for CYP3A4 cleavage of dibenzyl fluorescein has been reported as the rate of change in relative fluorescence units (RFUs) per minute.
# [2] = substrate: COc1ccc2c(-c3ccccc3C(=O)O)c3ccc(=O)cc-3oc2c1; experiment: pFluor50 Michaelis–Menten kinetics, CYP2C19 with 3OMF; format: in vitro ADME, human; details: pH 7.4
# Experimental: as §1
# For determining the Michaelis–Menten kinetic parameters (KM and Vmax) for each CYP–substrate pair, kinetic studies were performed in which a range of different concentrations of the substrate were used. […] For each CYP–substrate pair, plate reader parameters were set up as described in Table S1. […] Briefly, the working solution was prepared for each substrate and then primed into one of the dispensers on the plate reader. […] The amount of CYPexpress reagent in units/(mg/mL) was determined for each enzyme as new lots may have slightly different activities, and the activity of the reagent may change over time. The appropriate mass of each CYPexpress^TM reagent needed to obtain the required units was measured using an analytical balance and was transferred to the master mix solution. […] The plate was then transferred to the plate reader and readings were taken at the time intervals, for the appropriate length of time, and at the appropriate wavelengths as specified in Table 1.
# Calibration curves were constructed using the determined plate reader settings (Figure S3) and concentrations of the products formed to allow for the calculation of product formation rates based on the observed fluorescence. For these calculations, we presumed that the total increase in observed fluorescence over time was due only to product formation. Calibration curves were generated with 6 different concentrations of the products (fluorescein and resorufin), which spanned the relative fluorescence units (RFU) observed during the kinetic experiments. […]
# [3] = substrate: CCOc1ccc2nc3ccc(=O)cc-3oc2c1; experiment: pFluor50 Michaelis–Menten kinetics, CYP2C9 with Eres; format: in vitro ADME, human; details: pH 7.4
# Experimental: as §1, §2
# [4] = substrate: CCOc1ccc2nc3ccc(=O)cc-3oc2c1; experiment: pFluor50 Michaelis–Menten kinetics, CYP2D6 with Eres; format: in vitro ADME, human; details: pH 7.4
# Experimental: as §1
# as §3, with “In each case, a blank control well was also included, as described in Figure S1.” left out
# as §4, with “This allowed for the calculation of product concentrations from the observed RFU, enabling the calculation of the product formation rates. Unfortunately, fluorescein benzyl ester (the product formed from the metabolism of dibenzyl fluorescein) is not commercially available.” left out
# [5] = other: CYP1A2 1 mg/mL, three biological replicates
# [6] = other: CYP1A2, biological repeat 1
# [7] = other: CYP1A2, biological repeat 2
# [8] = other: CYP1A2, biological repeat 3
# [9] = other: CYP2C19 2 mg/mL, three biological replicates
# [10] = other: CYP2D6 1 mg/mL, three biological replicates
molecule,measurement,setting,value
"COc1ccc2c(-c3ccccc3C(=O)O)c3ccc(=O)cc-3oc2c1 [3OMF, 2-(6-methoxy-3-oxo-3H-xanthen-9-yl)benzoic acid]",Vmax – repeat 1,"CYP2C19; CYP2C19, biological repeat 1",19.35 nmol/min
same,Vmax – repeat 2,"CYP2C19; CYP2C19, biological repeat 2",15.86 nmol/min
same,Vmax – repeat 3,"CYP2C19; CYP2C19, biological repeat 3",19.37 nmol/min
"CCOc1ccc2nc3ccc(=O)cc-3oc2c1 [Eres, 7-ethoxy-3H-phenoxazin-3-one]",Vmax – repeat 1,"CYP2D6; CYP2D6, biological repeat 1",1.22 nmol/min
same,Vmax – repeat 2,"CYP2D6; CYP2D6, biological repeat 2",0.72 nmol/min
same,Vmax – repeat 1,"CYP2C9; CYP2C9, biological repeat 1",0.40 nmol/min
same,Vmax – repeat 2,"CYP2C9; CYP2C9, biological repeat 2",0.39 nmol/min
same,Vmax – repeat 3,"CYP2C9; CYP2C9, biological repeat 3",0.49 nmol/min
"CYP1A2 (Homo sapiens) (protein, purchased Sigma Aldrich (CYPexpress, Oxford Biomedical Research, Inc.) MTOXCE1A2) ALSQSVPFSATELLLASAIFCLVFWVLKGLRPRVPKGLKSPPEPWGWPLLGHVLTLGKNPHLALSRMSQRYGDVLQIRIGSTPVLVLSRLDTIRQALVRQGDDFKGRPDLYTSTLITDGQSLTFSTDSGPVWAARRRLAQNALNTFSIASDPASSSSCYLEEHVSKEAKALISRLQELMAGPGHFDPYNQVVVSVANVIGAMCFGQHFPESSDEMLSLVKNTHEFVETASSGNPLDFFPILRYLPNPALQRFKAFNQRFLWFLQKTVQEHYQDFDKNSVRDITGALFKHSKKGPRASGNLIPQEKIVNLVNDIFGAGFDTVTTAISWSLMYLVTKPEIQRKIQKELDTVIGRERRPRLSDRPQLPYLEAFILETFRHSSFLPFTIPHSTTRDTTLNGFYIPKKCCVFVNQWQVNHDPELWEDPSEFRPERFLTADGTAINKPLSEKMMLFGMGKRRCIGEVLAKWEIFLFLAILLQQLEFSVPPGVKVDLTPIYGLTMKHARCEHVQARLRFSIN",Km,[1]; [5],0.35 ± 0.1 µM
same,Vmax,[1]; [5],1.61 nmol/min
same,Km,[1]; [6],0.33 µM
same,Vmax,[1]; [6],1.64 nmol/min
same,Km,[1]; [7],0.225 µM
same,Vmax,[1]; [7],1.38 nmol/min
same,Km,[1]; [8],0.47 µM
same,Vmax,[1]; [8],1.82 nmol/min
"CYP2C19 (Homo sapiens) (protein, purchased Sigma Aldrich (CYPexpress, Oxford Biomedical Research, Inc.) MTOXCE2C19) MDPFVVLVLCLSCLLLLSIWRQSSGRGKLPPGPTPLPVIGNILQIDIKDVSKSLTNLSKIYGPVFTLYFGLERMVVLHGYEVVKEALIDLGEEFSGRGHFPLAERANRGFGIVFSNGKRWKEIRRFSLMTLRNFGMGKRSIEDRVQEEARCLVEELRKTKASPCDPTFILGCAPCNVICSIIFQKRFDYKDQQFLNLMEKLNENIRIVSTPWIQICNNFPTIIDYFPGTHNKLLKNLAFMESDILEKVKEHQESMDINNPRDFIDCFLIKMEKEKQNQQSEFTIENLVITAADLLGAGTETTSTTLRYALLLLLKHPEVTAKVQEEIERVIGRNRSPCMQDRGHMPYTDAVVHEVQRYIDLIPTSLPHAVTCDVKFRNYLIPKGTTILTSLTSVLHDNKEFPNPEMFDPRHFLDEGGNFKKSNYFMPFSAGKRICVGEGLARMELFLFLTFILQNFNLKSLIDPKDLDTTPVVNGFASVPPFYQLCFIPV",Km,[2]; [9],2.3 ± 0.8 µM and 2.31 ± 0.8 µM
same,Vmax,[2]; [9],0.0182 µmol/min
same,Km,"[2]; other: CYP2C19, biological repeat 1",3.19 µM
same,Km,"[2]; other: CYP2C19, biological repeat 2",1.42 µM
"CYP2C9 (Homo sapiens) (protein, purchased Sigma Aldrich (CYPexpress, Oxford Biomedical Research, Inc.) MTOXCE2C9) MDSLVVLVLCLSCLLLLSLWRQSSGRGKLPPGPTPLPVIGNILQIGIKDISKSLTNLSKVYGPVFTLYFGLKPIVVLHGYEAVKEALIDLGEEFSGRGIFPLAERANRGFGIVFSNGKKWKEIRRFSLMTLRNFGMGKRSIEDRVQEEARCLVEELRKTKASPCDPTFILGCAPCNVICSIIFHKRFDYKDQQFLNLMEKLNENIKILSSPWIQICNNFSPIIDYFPGTHNKLLKNVAFMKSYILEKVKEHQESMDMNNPQDFIDCFLMKMEKEKHNQPSEFTIESLENTAVDLFGAGTETTSTTLRYALLLLLKHPEVTAKVQEEIERVIGRNRSPCMQDRSHMPYTDAVVHEVQRYIDLLPTSLPHAVTCDIKFRNYLIPKGTTILISLTSVLHDNKEFPNPEMFDPHHFLDEGGNFKKSKYFMPFSAGKRICVGEALAGMELFLFLTSILQNFNLKSLVDPKNLDTTPVVNGFASVPPFYQLCFIPV",Km,"[3]; other: CYP2C9, biological repeat 1",0.46 µM
same,Km,"[3]; other: CYP2C9, biological repeat 2",0.52 µM
same,Km,"[3]; other: CYP2C9, biological repeat 3",0.39 µM
"CYP2D6 (Homo sapiens) (protein, purchased Sigma Aldrich (CYPexpress, Oxford Biomedical Research, Inc.) MTOXCE2D6) MGLEALVPLAVIVAIFLLLVDLMHRRQRWAARYPPGPLPLPGLGNLLHVDFQNTPYCFDQLRRRFGDVFSLQLAWTPVVVLNGLAAVREALVTHGEDTADRPPVPITQILGFGPRSQGVFLARYGPAWREQRRFSVSTLRNLGLGKKSLEQWVTEEAACLCAAFANHSGRPFRPNGLLDKAVSNVIASLTCGRRFEYDDPRFLRLLDLAQEGLKEESGFLREVLNAVPVLLHIPALAGKVLRFQKAFLTQLDELLTEHRMTWDPAQPPRDLTEAFLAEMEKAKGNPESSFNDENLRIVVADLFSAGMVTTSTTLAWGLLLMILHPDVQRRVQQEIDDVIGQVRRPEMGDQAHMPYTTAVIHEVQRFGDIVPLGVTHMTSRDIEVQGFRIPKGTTLITNLSSVLKDEAVWEKPFRFHPEHFLDAQGHFVKPEAFLPFSAGRRACLGEPLARMELFLFFTSLLQHFSFSVPTGQPRPSHHGVFAFLVSPSPYELCAVPR",Km,[4]; [10],1.63 ± 0.7 µM
same,Vmax,[4]; [10],0.00093 µmol/min
same,Km,"[4]; other: CYP2D6, biological repeat 1",2.43 µM
same,Km,"[4]; other: CYP2D6, biological repeat 2",0.89 µM
same,Km,"[4]; other: CYP2D6, biological repeat 3",1.57 µM
